Measured values from IntAct's records for PubMed 19037259.

B1: Protein VAC14 homolog (Homo sapiens), Q08AM6 (parent)
chain: MNPEKDFAPLTPNIVRALNDKLYEKRKVAALEIEKLVREFVAQNNTVQIKHVIQTLSQEFALSQHPHSRKGGLIGLAACSIALGKDSGLYLKELIEPVLTCFNDADSRLRYYACEALYNIVKVARGAVLPHFNVLFDGLSKLAADPDPNVKSGSELLDRLLKDIVTESNKFDLVSFIPLLRERIYSNNQYARQFIISWILVLESVPDINLLDYLPEILDGLFQILGDNGKEIRKMCEVVLGEFLKEIKKNPSSVKFAEMANILVIHCQTTDDLIQLTAMCWMREFIQLAGRVMLPYSSGILTAVLPCLAYDDRKKSIKEVANVCNQSLMKLVTPEDDELDELRPGQRQAEPTPDDALPKQEGTASGGPDGSCDSSFSSGISVFTAASTERAPVTLHLDGIVQVLNCHLSDTAIGMMTRIAVLKWLYHLYIKTPRKMFRHTDSLFPILLQTLSDESDEVILKDLEVLAEIASSPAGQTDDPGPLDGPDLQASHSELQVPTPGRAGLLNTSGTKGLECSPSTPTMNSYFYKFMINLLKRFSSERKLLEVRGPFIIRQLCLLLNAENIFHSMADILLREEDLKFASTMVHALNTILLTSTELFQLRNQLKDLKTLESQNLFCCLYRSWCHNPVTTVSLCFLTQNYRHAYDLIQKFGDLEVTVDFLAEVDKLVQLIECPIFTYLRLQLLDVKNNPYLIKALYGLLMLLPQSSAFQLLSHRLQCVPNPELLQTEDSLKAAPKSQKADSPSIDYAELLQHFEKVQNKHLEVRHQRSGRGDHLDRRVVL
B2: Vacuole morphology and inheritance protein 14 (Saccharomyces cerevisiae), Q06708 (parent)
chain: MEKSIAKGLSDKLYEKRKAAALELEKLVKQCVLEGDYDRIDKIIDELCRDYAYALHQPMARNAGLMGLAATAIALGINDVGRYLRNILPPVLACFGDQNDQVRFYACESLYNIAKIAKGEILVYFNEIFDVLCKISADTENSVRGAAELLDRLIKDIVAERASNYISIVNNGSHGLLPAIKTDPISGDVYQEEYEQDNQLAFSLPKFIPLLTERIYAINPDTRVFLVDWLKVLLNTPGLELISYLPSFLGGLFTFLGDSHKDVRTVTHTLMDSLLHEVDRISKLQTEIKMKRLERLKMLEDKYNNSSTPTKKADGALIAEKKKTLMTALGGLSKPLSMETDDTKLSNTNETDDERHLTSQEQLLDSEATSQEPLRDGEEYIPGQDINLNFPEVITVLVNNLASSEAEIQLIALHWIQVILSISPNVFIPFLSKILSVLLKLLSDSDPHITEIAQLVNGQLLSLCSSYVGKETDGKIAYGPIVNSLTLQFFDSRIDAKIACLDWLILIYHKAPNQILKHNDSMFLTLLKSLSNRDSVLIEKALSLLQSLCSDSNDNYLRQFLQDLLTLFKRDTKLVKTRANFIMRQISSRLSPERVYKVISSILDNYNDTTFVKMMIQILSTNLITSPEMSSLRNKLRTCEDGMFFNSLFKSWCPNPVSVISLCFVAENYELAYTVLQTYANYELKLNDLVQLDILIQLFESPVFTRMRLQLLEQQKHPFLHKCLFGILMIIPQSKAFETLNRRLNSLNIWTSQSYVMNNYIRQRENSNFCDSNSDISQRSVSQSKLHFQELINHFKAVSEEDEYSSDMIRLDHGANNKSLLLGSFLDGIDEDKQEIVTPISPMNEAINEEMESPNDNSSVILKDSGSLPFNRNVSDKLKK
partner: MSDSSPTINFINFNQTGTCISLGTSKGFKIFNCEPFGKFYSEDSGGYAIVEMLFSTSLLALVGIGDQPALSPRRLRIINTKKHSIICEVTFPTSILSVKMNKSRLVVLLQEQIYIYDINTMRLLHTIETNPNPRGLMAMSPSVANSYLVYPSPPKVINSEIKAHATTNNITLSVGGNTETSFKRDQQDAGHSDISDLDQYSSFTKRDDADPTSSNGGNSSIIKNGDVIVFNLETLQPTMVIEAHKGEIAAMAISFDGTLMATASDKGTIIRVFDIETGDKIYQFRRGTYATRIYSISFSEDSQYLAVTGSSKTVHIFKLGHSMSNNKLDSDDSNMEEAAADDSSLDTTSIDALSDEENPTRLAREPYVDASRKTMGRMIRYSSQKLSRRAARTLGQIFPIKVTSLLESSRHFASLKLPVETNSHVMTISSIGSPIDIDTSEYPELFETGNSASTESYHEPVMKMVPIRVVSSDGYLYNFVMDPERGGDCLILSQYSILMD
B3: Vacuole morphology and inheritance protein 14 (Saccharomyces cerevisiae), Q06708 (parent)
chain: B2 chain
partner: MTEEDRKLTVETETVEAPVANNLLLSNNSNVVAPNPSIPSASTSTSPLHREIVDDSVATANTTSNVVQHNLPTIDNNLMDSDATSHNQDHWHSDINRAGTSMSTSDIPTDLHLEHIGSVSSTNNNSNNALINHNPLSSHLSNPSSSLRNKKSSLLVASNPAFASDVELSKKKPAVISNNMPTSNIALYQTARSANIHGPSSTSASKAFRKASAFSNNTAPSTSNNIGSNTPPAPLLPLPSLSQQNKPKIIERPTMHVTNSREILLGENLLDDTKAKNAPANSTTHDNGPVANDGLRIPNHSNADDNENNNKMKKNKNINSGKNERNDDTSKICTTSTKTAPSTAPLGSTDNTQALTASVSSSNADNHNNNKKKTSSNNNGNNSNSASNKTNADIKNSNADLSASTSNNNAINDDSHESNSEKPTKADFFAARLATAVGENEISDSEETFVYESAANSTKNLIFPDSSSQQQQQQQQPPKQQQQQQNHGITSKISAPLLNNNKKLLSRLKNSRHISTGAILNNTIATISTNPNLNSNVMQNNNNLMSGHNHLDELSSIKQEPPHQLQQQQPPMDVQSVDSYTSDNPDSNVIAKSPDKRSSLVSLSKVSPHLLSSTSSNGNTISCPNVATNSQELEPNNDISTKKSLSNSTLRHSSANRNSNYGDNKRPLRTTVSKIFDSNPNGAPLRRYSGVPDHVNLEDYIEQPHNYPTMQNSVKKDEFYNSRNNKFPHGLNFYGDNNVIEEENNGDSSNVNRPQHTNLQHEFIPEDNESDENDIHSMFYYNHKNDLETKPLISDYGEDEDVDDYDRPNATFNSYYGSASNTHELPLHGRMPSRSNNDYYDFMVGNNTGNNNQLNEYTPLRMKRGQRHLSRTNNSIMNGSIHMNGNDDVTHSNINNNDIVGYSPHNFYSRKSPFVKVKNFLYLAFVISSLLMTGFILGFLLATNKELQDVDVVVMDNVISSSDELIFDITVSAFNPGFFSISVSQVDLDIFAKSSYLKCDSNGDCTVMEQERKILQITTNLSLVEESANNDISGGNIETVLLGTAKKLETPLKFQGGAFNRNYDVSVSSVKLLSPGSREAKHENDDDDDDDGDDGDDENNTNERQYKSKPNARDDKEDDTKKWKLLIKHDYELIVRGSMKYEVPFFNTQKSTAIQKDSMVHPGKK
B4: Vacuole morphology and inheritance protein 14 (Saccharomyces cerevisiae), Q06708 (parent)
chain: B2 chain
B5: Protein VAC14 homolog (Homo sapiens), Q08AM6 (parent)
chain: B1 chain
partner: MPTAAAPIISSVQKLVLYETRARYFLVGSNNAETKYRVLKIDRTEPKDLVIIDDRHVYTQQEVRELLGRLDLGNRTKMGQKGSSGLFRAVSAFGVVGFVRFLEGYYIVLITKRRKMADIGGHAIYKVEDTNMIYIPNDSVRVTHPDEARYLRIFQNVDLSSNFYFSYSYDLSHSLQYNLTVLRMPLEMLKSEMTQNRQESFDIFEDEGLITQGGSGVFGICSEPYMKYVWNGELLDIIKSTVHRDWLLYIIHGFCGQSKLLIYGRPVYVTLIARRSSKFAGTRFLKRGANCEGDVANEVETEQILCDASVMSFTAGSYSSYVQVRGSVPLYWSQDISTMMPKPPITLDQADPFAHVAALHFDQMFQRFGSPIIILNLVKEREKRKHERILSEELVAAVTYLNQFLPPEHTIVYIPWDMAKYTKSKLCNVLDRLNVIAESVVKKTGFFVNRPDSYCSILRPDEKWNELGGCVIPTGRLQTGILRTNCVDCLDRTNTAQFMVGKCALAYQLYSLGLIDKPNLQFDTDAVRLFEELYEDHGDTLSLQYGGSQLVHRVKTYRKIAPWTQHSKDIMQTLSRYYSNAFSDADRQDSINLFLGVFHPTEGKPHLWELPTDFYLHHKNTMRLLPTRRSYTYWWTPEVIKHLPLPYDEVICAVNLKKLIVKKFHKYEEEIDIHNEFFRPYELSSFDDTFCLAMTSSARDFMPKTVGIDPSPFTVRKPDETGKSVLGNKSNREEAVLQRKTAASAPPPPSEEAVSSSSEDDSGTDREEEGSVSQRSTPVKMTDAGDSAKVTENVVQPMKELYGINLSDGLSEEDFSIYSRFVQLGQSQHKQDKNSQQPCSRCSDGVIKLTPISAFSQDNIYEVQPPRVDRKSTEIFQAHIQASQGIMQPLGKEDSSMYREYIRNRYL

Variants of: B1
Settings: with fyv1_human PIKFYVE

Variant	effect of a mutation on the interaction
L156R	disrupting interaction

Variants of: B2
Settings: with atg18_yeast ATG18, P43601

Variant	effect of a mutation on the interaction
L329I	disrupting interaction
R61K	disrupting interaction
H56Y	disrupting interaction
Q101R	disrupting interaction

Variants of: B2
Settings: with atg18_yeast ATG18, P43601
Remark: another data set of the same source

Variant	effect of a mutation on the interaction
L149R	disrupting interaction

Variants of: B3
Settings: with vac7_yeast VAC7, P53950

Variant	effect of a mutation on the interaction
L149R	disrupting interaction

Variants of: B3
Settings: with vac7_yeast VAC7, P53950
Remark: another data set of the same source

Variant	effect of a mutation on the interaction
R61K	disrupting interaction
H56Y	disrupting interaction
L329I	disrupting interaction
Q101R	disrupting interaction

Variants of: B4
Settings: with fab1_yeast FAB1, P34756
Chain of fab1_yeast FAB1, P34756 (P34756 whole entry): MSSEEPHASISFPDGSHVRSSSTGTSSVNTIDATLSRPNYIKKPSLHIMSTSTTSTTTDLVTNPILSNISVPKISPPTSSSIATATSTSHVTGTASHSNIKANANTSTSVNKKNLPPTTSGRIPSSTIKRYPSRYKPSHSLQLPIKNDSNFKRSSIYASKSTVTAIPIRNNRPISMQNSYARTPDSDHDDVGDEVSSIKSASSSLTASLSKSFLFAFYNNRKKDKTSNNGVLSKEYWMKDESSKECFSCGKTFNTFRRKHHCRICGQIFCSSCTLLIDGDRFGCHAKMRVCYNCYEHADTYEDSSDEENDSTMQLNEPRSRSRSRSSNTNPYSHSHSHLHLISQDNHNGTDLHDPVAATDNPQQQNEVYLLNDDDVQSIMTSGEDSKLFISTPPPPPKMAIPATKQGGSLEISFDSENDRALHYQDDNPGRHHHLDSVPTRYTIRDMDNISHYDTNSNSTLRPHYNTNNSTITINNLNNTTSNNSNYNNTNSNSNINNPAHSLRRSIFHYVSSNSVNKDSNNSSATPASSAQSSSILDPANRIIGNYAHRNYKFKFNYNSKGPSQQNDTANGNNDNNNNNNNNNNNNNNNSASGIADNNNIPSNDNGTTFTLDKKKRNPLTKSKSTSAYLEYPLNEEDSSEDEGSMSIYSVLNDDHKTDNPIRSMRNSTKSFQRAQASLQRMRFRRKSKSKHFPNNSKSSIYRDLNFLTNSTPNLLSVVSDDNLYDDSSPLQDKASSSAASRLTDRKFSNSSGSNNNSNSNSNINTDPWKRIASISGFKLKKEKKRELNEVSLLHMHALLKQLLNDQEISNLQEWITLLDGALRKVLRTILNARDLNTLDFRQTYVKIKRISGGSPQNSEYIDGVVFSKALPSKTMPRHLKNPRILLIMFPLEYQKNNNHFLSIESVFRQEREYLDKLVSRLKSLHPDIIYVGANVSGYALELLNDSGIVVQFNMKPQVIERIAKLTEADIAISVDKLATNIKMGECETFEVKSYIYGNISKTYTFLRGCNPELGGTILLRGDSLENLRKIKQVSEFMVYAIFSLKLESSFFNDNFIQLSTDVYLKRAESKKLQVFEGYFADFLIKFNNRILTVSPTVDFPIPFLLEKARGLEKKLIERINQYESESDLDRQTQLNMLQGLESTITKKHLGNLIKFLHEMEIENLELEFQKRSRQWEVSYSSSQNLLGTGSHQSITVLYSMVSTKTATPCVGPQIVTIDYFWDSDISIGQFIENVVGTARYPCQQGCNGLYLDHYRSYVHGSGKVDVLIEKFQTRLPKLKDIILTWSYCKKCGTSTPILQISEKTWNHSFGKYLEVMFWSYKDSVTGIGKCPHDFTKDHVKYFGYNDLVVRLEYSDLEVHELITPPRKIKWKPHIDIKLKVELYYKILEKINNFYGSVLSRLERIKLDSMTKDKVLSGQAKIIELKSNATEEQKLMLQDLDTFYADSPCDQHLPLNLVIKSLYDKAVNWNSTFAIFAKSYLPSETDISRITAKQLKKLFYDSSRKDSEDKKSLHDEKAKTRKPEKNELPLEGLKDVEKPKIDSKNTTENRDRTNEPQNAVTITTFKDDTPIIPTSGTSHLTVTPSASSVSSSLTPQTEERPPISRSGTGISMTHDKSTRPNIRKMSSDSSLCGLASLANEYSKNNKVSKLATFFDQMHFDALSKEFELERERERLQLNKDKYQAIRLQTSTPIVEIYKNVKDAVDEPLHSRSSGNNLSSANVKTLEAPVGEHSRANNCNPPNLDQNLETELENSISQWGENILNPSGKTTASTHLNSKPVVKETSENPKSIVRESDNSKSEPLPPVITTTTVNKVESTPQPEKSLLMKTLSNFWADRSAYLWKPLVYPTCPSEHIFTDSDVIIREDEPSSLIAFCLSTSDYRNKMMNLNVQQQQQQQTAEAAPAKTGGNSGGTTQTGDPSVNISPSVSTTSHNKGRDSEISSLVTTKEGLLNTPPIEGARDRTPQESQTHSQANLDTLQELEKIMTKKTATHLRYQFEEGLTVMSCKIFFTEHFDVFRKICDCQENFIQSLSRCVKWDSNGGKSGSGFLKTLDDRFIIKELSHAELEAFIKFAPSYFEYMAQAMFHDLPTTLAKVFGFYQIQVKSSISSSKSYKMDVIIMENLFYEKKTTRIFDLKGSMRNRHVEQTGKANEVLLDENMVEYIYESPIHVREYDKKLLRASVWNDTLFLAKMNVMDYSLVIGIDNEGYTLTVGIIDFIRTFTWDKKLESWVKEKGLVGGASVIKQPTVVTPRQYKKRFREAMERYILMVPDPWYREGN

Variant	effect of a mutation on the interaction
L149R	disrupting interaction

Variants of: B5
Settings: with fig4_human FIG4, Q92562

Variant	effect of a mutation on the interaction
L156R	disrupting interaction
